In patent US20260055205A1 (published 2026):

B1: CD3.87 (bispecific antibody, V domains shown)
VH: EVQLLESGGGIVQPGGSLKLSCAASGFTFNTYAMNWVRQAPGKGLEWVARIRSKYNNYATTYADSVKDRFTISRDDSKNTVYLQMNNLKTEDTAVYYCVRHENFGNSYVSWFAHWGQGTLVTVSS
VL: ELVVTQEPSLTVSPGGTVTLTCRSSNGAVTSSNYANWVQQKPGQAPRGLIGGTNKRAPGTPARFSGSLLGGKAALTLSGVQPEDEAVYYCALWYPNLWVFGGGTKLTVL
notes: paTCE with PSMA.5; also called AC3416; Y58T
B2: CD3.94 (bispecific antibody, V domains shown)
VH: EVQLLESGGGIVQPGGSLKLSCAASGFTFNTYAMNWVRQAPGKGLEWVARIRSKYNNYATYYPDSVKDRFTISRDDSKNTVYLQMNNLKTEDTAVYYCVRHENFGNSYVSWFAHWGQGTLVTVSS
VL: ELVVTQEPSLTVSPGGTVTLTCRSSNGAVTSSNYANWVQQKPGQAPRGLIGGTNKRAPGTPARFSGSLLGGKAALTLSGVQPEDEAVYYCALWYPNLWVFGGGTKLTVL
notes: paTCE with PSMA.5; also called AC3423; A60P
B3: CD3.101 (bispecific antibody, V domains shown)
VH: EVQLLESGGGIVQPGGSLKLSCAASGFTFNTYAMNWVRQAPGKGLEWVARIRSKYNNYATYYADSVKDRFTISRDDSKNTVYLQMNSLKTEDTAVYYCVRHENFGNSYVSWFAHWGQGTLVTVSS
VL: ELVVTQEPSLTVSPGGTVTLTCRSSNGAVTSSNYANWVQQKPGQAPRGLIGGTNKRAPGTPARFSGSLLGGKAALTLSGVQPEDEAVYYCALWYPNLWVFGGGTKLTVL
notes: paTCE with PSMA.5; also called AC3430; N82bS
B4: CD3.89 (bispecific antibody, V domains shown)
VH: EVQLLESGGGIVQPGGSLKLSCAASGFTFNTYAMNWVRQAPGKGLEWVARIRSKYNNYATYEADSVKDRFTISRDDSKNTVYLQMNNLKTEDTAVYYCVRHENFGNSYVSWFAHWGQGTLVTVSS
VL: ELVVTQEPSLTVSPGGTVTLTCRSSNGAVTSSNYANWVQQKPGQAPRGLIGGTNKRAPGTPARFSGSLLGGKAALTLSGVQPEDEAVYYCALWYPNLWVFGGGTKLTVL
notes: paTCE with PSMA.5; also called AC3418; Y59E
B5: CD3.99 (bispecific antibody, V domains shown)
VH: EVQLLESGGGIVQPGGSLKLSCAASGFTFNTYAMNWVRQAPGKGLEWVARIRSKYNNYATYYADSVKDRFTISRDDSKNTVYLQMNELKTEDTAVYYCVRHENFGNSYVSWFAHWGQGTLVTVSS
VL: ELVVTQEPSLTVSPGGTVTLTCRSSNGAVTSSNYANWVQQKPGQAPRGLIGGTNKRAPGTPARFSGSLLGGKAALTLSGVQPEDEAVYYCALWYPNLWVFGGGTKLTVL
notes: paTCE with PSMA.5; also called AC3428; N82bE
B6: CD3.107 (bispecific antibody, V domains shown)
VH: EVQLLESGGGIVQPGGSLKLSCAASGFTFNTYAMNWVRQAPGKGLEWVARIRSKYNNYATYYADSVKDRFTISRDDSKNTVYLQMNNLKTEDTAVYYCVRHENFGNSYVSWFAHWGQGTLVTVSS
VL: ELVVTQEPSLTVSPGGTVTLTCRSSNGAVTSSNYANWVQQKPGQAPRGLIGGTNKRAPGTPARFSGSSLGGKAALTLSGVQPEDEAVYYCALWYPNLWVFGGGTKLTVL
notes: paTCE with PSMA.5; also called AC3436; L66S
B7: CD3.108 (bispecific antibody, V domains shown)
VH: EVQLLESGGGIVQPGGSLKLSCAASGFTFNTYAMNWVRQAPGKGLEWVARIRSKYNNYATYYADSVKDRFTISRDDSKNTVYLQMNNLKTEDTAVYYCVRHENFGNSYVSWFAHWGQGTLVTVSS
VL: ELVVTQEPSLTVSPGGTVTLTCRSSNGAVTSSNYANWVQQKPGQAPRGLIGGTNKRAPGTPARFSGSKLGGKAALTLSGVQPEDEAVYYCALWYPNLWVFGGGTKLTVL
notes: paTCE with PSMA.5; also called AC3437; L66K
B8: CD3.102 (bispecific antibody, V domains shown)
VH: EVQLLESGGGIVQPGGSLKLSCAASGFTFNTYAMNWVRQAPGKGLEWVARIRSKYNNYATYYADSVKDRFTISRDDSKNTVYLQMNYLKTEDTAVYYCVRHENFGNSYVSWFAHWGQGTLVTVSS
VL: ELVVTQEPSLTVSPGGTVTLTCRSSNGAVTSSNYANWVQQKPGQAPRGLIGGTNKRAPGTPARFSGSLLGGKAALTLSGVQPEDEAVYYCALWYPNLWVFGGGTKLTVL
notes: paTCE with PSMA.5; also called AC3431; N82bY
B9: CD3.95 (bispecific antibody, V domains shown)
VH: EVQLLESGGGIVQPGGSLKLSCAASGFTFNTYAMNWVRQAPGKGLEWVARIRSKYNNYATYYADSVKGRFTISRDDSKNTVYLQMNNLKTEDTAVYYCVRHENFGNSYVSWFAHWGQGTLVTVSS
VL: ELVVTQEPSLTVSPGGTVTLTCRSSNGAVTSSNYANWVQQKPGQAPRGLIGGTNKRAPGTPARFSGSLLGGKAALTLSGVQPEDEAVYYCALWYPNLWVFGGGTKLTVL
notes: paTCE with PSMA.5; also called AC3424; D65G
B10: CD3.90 (bispecific antibody, V domains shown)
VH: EVQLLESGGGIVQPGGSLKLSCAASGFTFNTYAMNWVRQAPGKGLEWVARIRSKYNNYATYQADSVKDRFTISRDDSKNTVYLQMNNLKTEDTAVYYCVRHENFGNSYVSWFAHWGQGTLVTVSS
VL: ELVVTQEPSLTVSPGGTVTLTCRSSNGAVTSSNYANWVQQKPGQAPRGLIGGTNKRAPGTPARFSGSLLGGKAALTLSGVQPEDEAVYYCALWYPNLWVFGGGTKLTVL
notes: paTCE with PSMA.5; also called AC3419; Y59Q
B11: CD3.91 (bispecific antibody, V domains shown)
VH: EVQLLESGGGIVQPGGSLKLSCAASGFTFNTYAMNWVRQAPGKGLEWVARIRSKYNNYATYGADSVKDRFTISRDDSKNTVYLQMNNLKTEDTAVYYCVRHENFGNSYVSWFAHWGQGTLVTVSS
VL: ELVVTQEPSLTVSPGGTVTLTCRSSNGAVTSSNYANWVQQKPGQAPRGLIGGTNKRAPGTPARFSGSLLGGKAALTLSGVQPEDEAVYYCALWYPNLWVFGGGTKLTVL
notes: paTCE with PSMA.5; also called AC3420; Y59G
B12: CD3.97 (bispecific antibody, V domains shown)
VH: EVQLLESGGGIVQPGGSLKLSCAASGFTFNTYAMNWVRQAPGKGLEWVARIRSKYNNYATYYADSVKDRFTISRDDSKNTVGLQMNNLKTEDTAVYYCVRHENFGNSYVSWFAHWGQGTLVTVSS
VL: ELVVTQEPSLTVSPGGTVTLTCRSSNGAVTSSNYANWVQQKPGQAPRGLIGGTNKRAPGTPARFSGSLLGGKAALTLSGVQPEDEAVYYCALWYPNLWVFGGGTKLTVL
notes: paTCE with PSMA.5; also called AC3426; Y79G
B13: CD3.93 (bispecific antibody, V domains shown)
VH: EVQLLESGGGIVQPGGSLKLSCAASGFTFNTYAMNWVRQAPGKGLEWVARIRSKYNNYATYYKDSVKDRFTISRDDSKNTVYLQMNNLKTEDTAVYYCVRHENFGNSYVSWFAHWGQGTLVTVSS
VL: ELVVTQEPSLTVSPGGTVTLTCRSSNGAVTSSNYANWVQQKPGQAPRGLIGGTNKRAPGTPARFSGSLLGGKAALTLSGVQPEDEAVYYCALWYPNLWVFGGGTKLTVL
notes: paTCE with PSMA.5; also called AC3422; A60K
B14: CD3.98 (bispecific antibody, V domains shown)
VH: EVQLLESGGGIVQPGGSLKLSCAASGFTFNTYAMNWVRQAPGKGLEWVARIRSKYNNYATYYADSVKDRFTISRDDSKNTVSLQMNNLKTEDTAVYYCVRHENFGNSYVSWFAHWGQGTLVTVSS
VL: ELVVTQEPSLTVSPGGTVTLTCRSSNGAVTSSNYANWVQQKPGQAPRGLIGGTNKRAPGTPARFSGSLLGGKAALTLSGVQPEDEAVYYCALWYPNLWVFGGGTKLTVL
notes: paTCE with PSMA.5; also called AC3427; Y79S
B15: CD3.96 (bispecific antibody, V domains shown)
VH: EVQLLESGGGIVQPGGSLKLSCAASGFTFNTYAMNWVRQAPGKGLEWVARIRSKYNNYATYYADSVKDRFTISRDDSKNTVDLQMNNLKTEDTAVYYCVRHENFGNSYVSWFAHWGQGTLVTVSS
VL: ELVVTQEPSLTVSPGGTVTLTCRSSNGAVTSSNYANWVQQKPGQAPRGLIGGTNKRAPGTPARFSGSLLGGKAALTLSGVQPEDEAVYYCALWYPNLWVFGGGTKLTVL
notes: paTCE with PSMA.5; also called AC3425; Y79D
B16: CD3.104 (bispecific antibody, V domains shown)
VH: EVQLLESGGGIVQPGGSLKLSCAASGFTFNTYAMNWVRQAPGKGLEWVARIRSKYNNYATYYADSVKDRFTISRDDSKNTVYLQMNNLKTEDTAVYYCVRHENFGNSYVSWFAHWGQGTLVTVSS
VL: ELVVTQEPSLTVSPGGTVTLTCRSSNGAVTSSNYANWVQQKPGQAPRGLIGGTNKRAPGTPARFSGSLQGGKAALTLSGVQPEDEAVYYCALWYPNLWVFGGGTKLTVL
notes: paTCE with PSMA.5; also called AC3433; L67Q
B17: CD3.100 (bispecific antibody, V domains shown)
VH: EVQLLESGGGIVQPGGSLKLSCAASGFTFNTYAMNWVRQAPGKGLEWVARIRSKYNNYATYYADSVKDRFTISRDDSKNTVYLQMNQLKTEDTAVYYCVRHENFGNSYVSWFAHWGQGTLVTVSS
VL: ELVVTQEPSLTVSPGGTVTLTCRSSNGAVTSSNYANWVQQKPGQAPRGLIGGTNKRAPGTPARFSGSLLGGKAALTLSGVQPEDEAVYYCALWYPNLWVFGGGTKLTVL
notes: paTCE with PSMA.5; also called AC3429; N82bQ
B18: CD3.105 (bispecific antibody, V domains shown)
VH: EVQLLESGGGIVQPGGSLKLSCAASGFTFNTYAMNWVRQAPGKGLEWVARIRSKYNNYATYYADSVKDRFTISRDDSKNTVYLQMNNLKTEDTAVYYCVRHENFGNSYVSWFAHWGQGTLVTVSS
VL: ELVVTQEPSLTVSPGGTVTLTCRSSNGAVTSSNYANWVQQKPGQAPRGLIGGTNKRAPGTPARFSGSLLEGKAALTLSGVQPEDEAVYYCALWYPNLWVFGGGTKLTVL
notes: paTCE with PSMA.5; also called AC3434; G68E
B19: CD3.88 (bispecific antibody, V domains shown)
VH: EVQLLESGGGIVQPGGSLKLSCAASGFTFNTYAMNWVRQAPGKGLEWVARIRSKYNNYATYDADSVKDRFTISRDDSKNTVYLQMNNLKTEDTAVYYCVRHENFGNSYVSWFAHWGQGTLVTVSS
VL: ELVVTQEPSLTVSPGGTVTLTCRSSNGAVTSSNYANWVQQKPGQAPRGLIGGTNKRAPGTPARFSGSLLGGKAALTLSGVQPEDEAVYYCALWYPNLWVFGGGTKLTVL
notes: paTCE with PSMA.5; also called AC3417; Y59D
B20: CD3.106 (bispecific antibody, V domains shown)
VH: EVQLLESGGGIVQPGGSLKLSCAASGFTFNTYAMNWVRQAPGKGLEWVARIRSKYNNYATYYADSVKDRFTISRDDSKNTVYLQMNNLKTEDTAVYYCVRHENFGNSYVSWFAHWGQGTLVTVSS
VL: ELVVTQEPSLTVSPGGTVTLTCRSSNGAVTSSNYANWVQQKPGQAPRGLIGGTNKRAPGTPARFSGSLDGGKAALTLSGVQPEDEAVYYCALWYPNLWVFGGGTKLTVL
notes: paTCE with PSMA.5; also called AC3435; L67D
B21: CD3.92 (bispecific antibody, V domains shown)
VH: EVQLLESGGGIVQPGGSLKLSCAASGFTFNTYAMNWVRQAPGKGLEWVARIRSKYNNYATYWADSVKDRFTISRDDSKNTVYLQMNNLKTEDTAVYYCVRHENFGNSYVSWFAHWGQGTLVTVSS
VL: ELVVTQEPSLTVSPGGTVTLTCRSSNGAVTSSNYANWVQQKPGQAPRGLIGGTNKRAPGTPARFSGSLLGGKAALTLSGVQPEDEAVYYCALWYPNLWVFGGGTKLTVL
notes: paTCE with PSMA.5; also called AC3421; Y59W

target: T1, human CD3 epsilon (human, UniProt P07766 23-126, limits assumed); assay: Octet, crude lysate
T1 construct: also called huCD3e
T1 sequence (P07766 23-126 limits assumed): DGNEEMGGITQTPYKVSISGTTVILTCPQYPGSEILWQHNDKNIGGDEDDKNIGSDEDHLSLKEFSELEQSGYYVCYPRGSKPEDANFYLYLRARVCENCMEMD
Excerpt: To achieve this, Pool 1 was created, which included 74 paTCE molecules, each containing PSMA.5 and one of the 74 CD3.23 mutation variants. Single mutations were chosen based on analyses including CD3.23 PTE score analysis (using internal PTE algorithm v12) and structural analysis. Structural considerations included: possible contact disruption, anticipated steric clashes, side chain charge maintenance and possible pockets filling. Stability and affinity of the individually expressed molecules in the form of crude lysate was evaluated by Octet (ForteBio).

Binder | Kd
B1 | 17.9 nM
B2 | 8.2 nM
B3 | 4.8 nM
B4 | 9.7 nM
B5 | 5.9 nM
B6 | 7.3 nM
B7 | 3.2 nM
B8 | 5.2 nM
B9 | 5.4 nM
B10 | 7.2 nM
B11 | 8.3 nM
B12 | 121 nM
B13 | 8 nM
B14 | 9.6 nM
B15 | 9.8 nM
B16 | 4.6 nM
B17 | 7.1 nM
B18 | 4.9 nM
B19 | 63.2 nM
B20 | 6.1 nM
B21 | 37.2 nM
